Changes are numbered by the printed parent chain. In names and notes the source's numbering stands.

The data set “SEC-MALS” concerns the molecule itself. Briefly: SEC-MALS.
The data set “SEC” deals with the molecule itself. Briefly: SEC. In general terms: In gel filtration, larger molecules generally elute earlier.
The data set “crystal structure” deals with the molecule itself. Briefly: crystal structure.
The data set “AUC” deals with the molecule itself. Briefly: AUC.

B1: Human peroxiredoxin 2 C172W mutant, reduced (enzyme, UniProt P32119 2-198, looked up)
chain: ASGNARIGKPAPDFKATAVVDGAFKEVKLSDYKGKYVVLFFYPLDFTFVCPTEIIAFSNRAEDFRKLGCEVLGVSVDSQFTHLAWINTPRKEGGLGPLNIPLLADVTRRLSEDYGVLKTDEGIAYRGLFIIDGKGVLRQITVNDLPVGRSVDEALRLVQAFQYTDEHGEVWPAGWKPGSDTIKPNVDDSKEYFSKHN
The term stoichiometry N denotes the number of molecules, sites or subunits per partner or assembly. Turning to B1, the “stoichiometry N” value in the data set “SEC-MALS” came to 10. In “SEC”, this protein registered a percent decamer of 62%.

B2: Human peroxiredoxin 2, recombinant wild type, hyperoxidized (CP sulfinate) form (enzyme, UniProt P32119 2-198, looked up)
chain: B1 chain with W171C
modifications: Cys51 (CP) sulfinate
In the case of B2, in the data set “crystal structure”, the “stoichiometry N” value was 10.

B3: Human peroxiredoxin 2 C172S mutant, reduced (enzyme, UniProt P32119 2-198, looked up)
chain: B1 chain with W171S
With B3, the percent decamer in the data set “SEC” was 60%. For the same protein, in the data set “AUC”, the “stoichiometry N” value came out at 10.

B4: Human peroxiredoxin 2 C172D mutant, reduced (enzyme, UniProt P32119 2-198, looked up)
chain: B1 chain with W171D
Consider B4, for which the percent decamer in “SEC” was 45%. In “AUC”, the “stoichiometry N” value is 10.

These data come from publication PMC8049995 (The Journal of Biological Chemistry, 2021).
